These results are taken from patent US20190111149A1, “ANTI-EGFR ANTIBODY DRUG CONJUGATE” (priority 2016, published 2019).

The Kd is the constant that tells how readily two partners part at equilibrium. A high value points to a looser complex.

Experiment [1] deals with MBI_CD19_1; (SAR3419). Nature of the experiment: BLI Octet, antibody on anti-human Fc tip, peptide […]. In general terms: BLI is a label-free optical method that tracks binding on a fibre tip over time.
Experiment [2] concerns the target MBI_CD19_2; (MOR208). The description is as above.
The target in experiment [3] is Meditope enabled Clivatuzumab. The experiment is described as above.
Sequence of Meditope enabled Clivatuzumab (chain, as listed by the source, chain 1 of 2): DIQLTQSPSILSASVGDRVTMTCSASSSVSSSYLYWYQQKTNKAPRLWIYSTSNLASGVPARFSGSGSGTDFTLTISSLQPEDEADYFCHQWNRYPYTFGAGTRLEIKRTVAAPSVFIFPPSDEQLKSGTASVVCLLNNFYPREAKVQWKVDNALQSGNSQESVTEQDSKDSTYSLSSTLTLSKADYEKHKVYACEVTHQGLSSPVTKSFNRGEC
Sequence of Meditope enabled Clivatuzumab (chain, as listed by the source, chain 2 of 2): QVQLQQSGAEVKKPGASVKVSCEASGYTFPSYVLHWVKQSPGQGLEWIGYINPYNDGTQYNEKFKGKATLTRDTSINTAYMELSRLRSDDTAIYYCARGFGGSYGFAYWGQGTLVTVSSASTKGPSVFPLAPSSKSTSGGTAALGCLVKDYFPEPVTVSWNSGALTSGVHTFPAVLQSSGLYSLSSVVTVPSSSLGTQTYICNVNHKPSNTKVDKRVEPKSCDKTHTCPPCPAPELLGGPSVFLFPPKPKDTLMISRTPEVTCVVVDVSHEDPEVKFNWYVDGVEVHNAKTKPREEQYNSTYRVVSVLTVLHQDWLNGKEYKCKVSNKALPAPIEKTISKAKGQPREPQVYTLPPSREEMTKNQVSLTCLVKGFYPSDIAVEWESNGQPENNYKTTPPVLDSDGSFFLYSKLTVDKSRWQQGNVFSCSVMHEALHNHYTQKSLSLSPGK
For experiment [4], the target named is Meditope enabled Ocaratuzumab. The description is as above.
Sequence of Meditope enabled Ocaratuzumab (chain, as listed by the source, chain 1 of 2): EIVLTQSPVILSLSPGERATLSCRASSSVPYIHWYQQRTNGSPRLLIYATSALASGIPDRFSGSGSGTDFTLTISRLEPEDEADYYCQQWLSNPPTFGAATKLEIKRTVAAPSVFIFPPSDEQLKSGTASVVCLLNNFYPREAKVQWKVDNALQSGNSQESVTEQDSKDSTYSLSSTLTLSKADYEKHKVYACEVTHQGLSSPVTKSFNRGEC
Sequence of Meditope enabled Ocaratuzumab (chain, as listed by the source, chain 2 of 2): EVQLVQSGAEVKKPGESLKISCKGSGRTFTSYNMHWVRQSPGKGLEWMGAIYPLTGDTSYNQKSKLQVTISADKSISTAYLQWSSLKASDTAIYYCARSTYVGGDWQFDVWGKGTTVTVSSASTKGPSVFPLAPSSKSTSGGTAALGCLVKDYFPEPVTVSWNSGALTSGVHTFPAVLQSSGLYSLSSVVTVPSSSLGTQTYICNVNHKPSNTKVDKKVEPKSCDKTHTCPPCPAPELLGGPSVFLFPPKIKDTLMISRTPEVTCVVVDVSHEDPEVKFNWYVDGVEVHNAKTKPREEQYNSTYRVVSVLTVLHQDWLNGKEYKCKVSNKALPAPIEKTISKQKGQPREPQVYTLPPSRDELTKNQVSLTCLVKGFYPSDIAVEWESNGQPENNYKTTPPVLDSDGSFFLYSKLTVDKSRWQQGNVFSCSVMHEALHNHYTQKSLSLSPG
Experiment [5] concerns the target Photo optimized trastuzumab; meditope enabled (Tmab). The description is as above.
In experiment [6] the target is MBI_CD19_1; (SAR3419). Nature of the experiment: BLI Octet, antibody on anti-human Fc tip, peptide 37 nM.
Experiment [7] deals with MBI_CD19_2; (MOR208). The experiment is described as above.
Sequence of MBI_CD19_2; (MOR208) (chain, as listed by the source, chain 1 of 2): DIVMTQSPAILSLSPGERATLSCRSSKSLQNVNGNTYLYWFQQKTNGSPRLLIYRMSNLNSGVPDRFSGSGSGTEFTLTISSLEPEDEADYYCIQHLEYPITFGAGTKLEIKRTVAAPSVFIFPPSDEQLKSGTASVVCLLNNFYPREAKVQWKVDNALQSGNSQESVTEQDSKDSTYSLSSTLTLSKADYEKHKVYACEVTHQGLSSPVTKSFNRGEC
Sequence of MBI_CD19_2; (MOR208) (chain, as listed by the source, chain 2 of 2): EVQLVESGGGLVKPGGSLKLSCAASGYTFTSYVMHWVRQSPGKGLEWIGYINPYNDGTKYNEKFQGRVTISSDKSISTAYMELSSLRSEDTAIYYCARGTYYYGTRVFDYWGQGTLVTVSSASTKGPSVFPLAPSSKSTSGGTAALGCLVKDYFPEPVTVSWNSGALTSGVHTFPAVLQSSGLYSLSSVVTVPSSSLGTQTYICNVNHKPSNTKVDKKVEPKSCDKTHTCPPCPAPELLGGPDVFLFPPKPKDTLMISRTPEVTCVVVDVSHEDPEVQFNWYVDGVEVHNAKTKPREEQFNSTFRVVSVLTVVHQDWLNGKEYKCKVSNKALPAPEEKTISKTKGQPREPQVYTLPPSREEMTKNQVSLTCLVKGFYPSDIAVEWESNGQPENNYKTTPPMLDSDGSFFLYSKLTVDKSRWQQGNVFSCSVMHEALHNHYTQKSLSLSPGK
Experiment [8] deals with Meditope enabled Ocaratuzumab. The experiment is described as above.
Experiment [9] has as its target Photo optimized trastuzumab; meditope enabled (Tmab). The experiment is described as above.
The target in experiment [10] is MBI_CD19_1; (SAR3419). Briefly: BLI Octet, antibody on anti-human Fc tip, peptide 333 nM.
Experiment [11] addresses MBI_CD19_2; (MOR208). Described as above.
The target of experiment [12] is Meditope enabled Clivatuzumab. Described as above.
The target of experiment [13] is Photo optimized trastuzumab; meditope enabled (Tmab). The description is as above.
Sequence of Photo optimized trastuzumab; meditope enabled (Tmab) (chain, as listed by the source, chain 1 of 2): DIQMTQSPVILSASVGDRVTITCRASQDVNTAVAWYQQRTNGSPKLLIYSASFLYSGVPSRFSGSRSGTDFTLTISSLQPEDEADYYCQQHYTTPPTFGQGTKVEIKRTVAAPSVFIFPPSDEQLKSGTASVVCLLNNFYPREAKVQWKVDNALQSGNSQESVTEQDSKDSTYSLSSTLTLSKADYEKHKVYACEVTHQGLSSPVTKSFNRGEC
Sequence of Photo optimized trastuzumab; meditope enabled (Tmab) (chain, as listed by the source, chain 2 of 2): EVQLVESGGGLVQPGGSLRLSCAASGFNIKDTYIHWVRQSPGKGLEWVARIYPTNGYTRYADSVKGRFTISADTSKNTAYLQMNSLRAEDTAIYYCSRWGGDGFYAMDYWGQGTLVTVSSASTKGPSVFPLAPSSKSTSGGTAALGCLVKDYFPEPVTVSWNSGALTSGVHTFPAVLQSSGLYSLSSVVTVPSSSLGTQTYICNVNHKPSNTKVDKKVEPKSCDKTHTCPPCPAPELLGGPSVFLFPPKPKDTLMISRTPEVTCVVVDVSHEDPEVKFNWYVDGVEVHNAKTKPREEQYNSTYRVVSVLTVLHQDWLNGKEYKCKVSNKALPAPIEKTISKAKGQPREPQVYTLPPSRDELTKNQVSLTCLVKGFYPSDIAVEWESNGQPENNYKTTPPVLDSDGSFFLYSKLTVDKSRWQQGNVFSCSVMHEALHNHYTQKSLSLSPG

Sequence of MBI_CD19_1; (SAR3419) (chain, as listed by the source, chain 1 of 2): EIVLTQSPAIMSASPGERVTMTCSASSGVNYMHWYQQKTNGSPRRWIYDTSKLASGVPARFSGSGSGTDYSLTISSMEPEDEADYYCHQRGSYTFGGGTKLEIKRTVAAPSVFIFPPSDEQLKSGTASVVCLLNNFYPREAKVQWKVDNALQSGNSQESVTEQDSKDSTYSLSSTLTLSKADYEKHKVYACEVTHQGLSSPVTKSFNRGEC
Sequence of MBI_CD19_1; (SAR3419) (chain, as listed by the source, chain 2 of 2): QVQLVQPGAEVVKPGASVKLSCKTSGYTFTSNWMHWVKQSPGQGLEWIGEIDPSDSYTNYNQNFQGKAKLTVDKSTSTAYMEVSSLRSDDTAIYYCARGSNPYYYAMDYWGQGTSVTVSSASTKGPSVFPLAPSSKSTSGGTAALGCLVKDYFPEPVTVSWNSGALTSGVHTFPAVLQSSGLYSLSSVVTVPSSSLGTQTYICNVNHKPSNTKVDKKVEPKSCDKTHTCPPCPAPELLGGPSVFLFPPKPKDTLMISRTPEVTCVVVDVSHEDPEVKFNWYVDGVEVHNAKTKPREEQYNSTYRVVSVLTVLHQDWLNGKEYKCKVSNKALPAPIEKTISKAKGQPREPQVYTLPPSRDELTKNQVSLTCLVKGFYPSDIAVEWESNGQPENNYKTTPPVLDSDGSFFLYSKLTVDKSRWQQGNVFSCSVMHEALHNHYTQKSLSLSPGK

For CQFDLSTRRLRC (modifications not checked) [Peptide 22: DM1 conjugated cQFD (cQFD-DM1)], the Kd with MBI_CD19_1; (SAR3419) [1] is under 0.001 nM; with MBI_CD19_2; (MOR208) [2], 0.452 nM; in experiment [3] it was 3160 nM; in experiment [4], under 0.001 nM; in experiment [5], 1.88 nM; in the experiment with MBI_CD19_1; (SAR3419) [6], under 0.001 nM. The dissociation constant Kd in the experiment with MBI_CD19_2; (MOR208) [7] was under 0.001 nM; in experiment [8], under 0.001 nM; in experiment [9], 2.62 nM; in the experiment with MBI_CD19_1; (SAR3419) [10], 5.23 nM; with MBI_CD19_2; (MOR208) [11], under 0.001 nM; in experiment [12], 2.69 nM. For the same molecule, the Kd in [13] was determined as 1.63 nM.
